From the RNAGym collection of RNA variant scans (doi:10.1101/gr.219683.116)

B1: mRNA-splicing (parent)
chain: AGUUGCUGCUGGGAGCUCCAGCACAGUGAAAUGGACAGAAGGGCAGAGCAA

Variants of: B1
Test: exon inclusion enrichment index; higher = more inclusion; WT1 exon 5 minigene, HEK293

Variant | exon inclusion enrichment index
G5A C6G U7G C9A G15U | 0.000857
C6A U7A C9A U10A G38C A39U | 0.0576
G5C C6U G8C C9U U10C U32A G33A | 0.758
C6A U7C C9A U10C A45U G46A | 2.51
U4C G5C C6A U7C G8A U10A | 0.286
G5A C6U U7A G8U C9A A35U C36U | 0.000729
G5C C6A U7C G8A U10A C22G A23U | 0.0222
G5U C6G U7C U10C | 2.34
G5A C6G U7G C9A A37U G38U | 0.00105
G5A U7C G8A U10C C18A C19G | 0.297
G5U C6G U7A G8U C9U | 0.198
C6A U7C C9A U10C C19G A20C | 3.87
C6A U7A C9A U10A G41C G42A | 1
G5A C6G U7G C9A U27A | 0.00261
C6A U7A C9A U10A G43A C44G | 2.4
C6A U7A C9A U10A G43A C44U | 0.656
G5A C6U U7A G8U C9A C18G C19A | 0.0894
G5A C6U U7A G8U C9A A20U G21C | 0.0614
G5A C6U U7G G8U C9A | 0.144
C6A U7C G8A U10C | 2.3
G5C C6G U7C U10C C44A A45G | 5.42
A23U | 0.475
U3G U4C C6A U7C C9A U10C | 3.64
C6A U7A C9A U10A A39C A40G | 0.849

Variant | exon inclusion enrichment index
C6A U7A C9A U10A A31G | 1.04
G5C C6G U7C U10C G43A C44U | 3.64
G5A U7C G8A U10C G34C A35G | 1.69
A39U A40C | 0.276
G5A C6U U7A | 0.0138
C6A U7A C9A U10A C36A A37G | 0.204
G5C C6A U7C G8A U10A G38A | 0.0452
G5A U7C G8A U10C C18U C19A | 0.212
G5C C6G U7C U10C A31C U32A | 2.89
C6A U7A C9A U10A A35C C36G | 0.657
U3G U4A G5A C6G U7G C9A | 0.0126
G5C C6A U7C G8A U10A G21A C22G | 0.156
G5C C6A G8U U10A | 0.0451
G5C C6G U7C G8U C9A U10C | 2.74
G5A C6G U7G C9A G46A | 0.00583
U17A C18U | 1.09
A31U U32G | 0.056
U4G G5C U7C G8A U10C | 1.75
G5C C6G U7C U10C U17C C18G | 4.56
U7G G8C | 2.05
G43C C44G | 1.62
G2U U3A | 0.342
C6A U7C C9A U10C A30G | 3.61
G5C C6U G8C C9U U10C G42U G43U | 2.81

Variant | exon inclusion enrichment index
G2U U3G G5C C6A U7C G8A U10A | 0.503
G5C C6U G8C C9U U10C U17C | 1.43
G5C C6G U7C U10C G46A A47C | 3.6
G5C C6U G8C C9U U10C U32C G33U | 1.28
G5A C6G U7G C9A A39C A40C | 0.0091
C6A U7C C9A U10C U32C G33C | 4
G5A C6U U7C U10C | 3.3
U3A | 0.364
G5A U7C G8A U10C U27A G28U | 0.834
G5A C6U U7A G8U C9A G41C G42U | 0.445
G5C C6A U7C G8A U10A C44A A45G | 0.213
G5A U7C G8A G11C | 1.3
C6A U7A C9A U10A U17A C18U | 0.445
G5C C6A U7C G8U C9A U10A | 0.0885
G5A C6G U7G C9A G41A | 0.0013
U4C G5U U7C G8A U10C | 1.83
G5C C6U G8U C9G U10C | 0.68
G13U A14U | 0.0193
C6A U7A C9A U10A C18G C19U | 0.076
C6A U7C C9A U10C G34C A35U | 0.98
U17G C18G | 0.0429
G5A U7C G8A U10C C36G A37C | 0.667
G5C C6G U7G U10C | 1.51
G5C C6U G8C C9U U10C G42A | 3.34

Variant | exon inclusion enrichment index
C18G C19U | 0.777
G5A C6G U7G C9A A20G | 0.00245
G5C C6U G8C C9U U10C A40G G41U | 1.75
G5C C6U G8C C9U U10C A40G G41A | 0.782
G2A U3C C6A U7A C9A U10A | 0.648
G5U G8U C9U G15C C16U | 0.0902
C6A U7A C9A U10A G38A A39G | 0.862
C6A U7A C9A U10A G38A A39U | 0.0204
U4A G5U C6A U7C G8A U10A | 0.0592
G5A C6G U7G C9A A35G C36G | 0.00533
A37U G38C | 0.0886
C6A U7C C9A U10C G38A | 2.2
G5C C6U G8C C9U U10C A25G G26U | 2.71
G5C C6G U7C U10C C16A U17C | 4.04
C6A U7C C9A U10C A23C C24A | 3.49
A40G G41U | 0.153
G5C C6A U7C G8A U10A G11C G12U | 0.0425
G5C C6G U7C U10C G46A | 3.39
C6A U7C C9A U10C A37G G38U | 1.68
G5A C6U U7A G8U C9A U27A G28A | 0.065
G13C A14U | 0.194
G5C C6G U7C U10C G13A A14G | 3.3
C6A U7A C9A U10A A45C G46A | 0.367
G5A C6U U7A G8U C9A A25U G26U | 0.0803

Variant | exon inclusion enrichment index
G5U G8U C9U G42A G43C | 1.72
G5U G8U C9U A20U G21C | 0.1
G5A C6G U7G C9A G12A | 0.000801
G5U U7C C9U | 0.916
C6A U7C C9A U10C A37C | 3.93
C6A U7C C9A U10C A39U | 0.343
G5A C6G U7G C9A G28A A29U | 0.000814
C6A U7A C9A U10G G11C | 1.95
G5A C6U U7A G8U C9A G33A | 0.00613
U4G G5A C6U G8C C9U U10C | 1.22
G5U C6U U7G G8U C9U | 0.119
G5C C6G U7C G8U U10C | 2.76
C6A U7A C9A U10A A23C C24U | 0.243
G5C C6A U7C G8A U10A G38U A39G | 0.0343
G5U | 0.103
G5C | 0.147
C6A U7A C9A U10A A23U C24U | 0.0381
G5C C6A U7C G8C U10A | 0.494
G5A C6G U7G C9A G21C C22U | 0.00338
G5A C6G U7G G8U C9U | 0.00149
C6A U7C C9A U10C A25U G26C | 3.26
G5U G8U C9U G41A | 0.0762
C6A U7A C9A U10A C22U A23C | 0.267
A25U | 0.241

Variant | exon inclusion enrichment index
C6A U7C C9A U10C A23G C24G | 4.2
G5C C6U G8C C9U U10C G13C A14G | 1.94
G5C C6G U7C U10C A14C G15C | 1.16
C6A U7A C9A U10A G15A C16A | 0.363
G5A U7C G8A U10C G33U G34A | 0.441
G5C C6A U7C G8A U10A A37G G38A | 0.104
G5C C6U | 0.0627
G5C C6G U7C U10C G15C C16U | 3.37
C6A U7A G8U C9A U10C | 1.38
G5A U7C G8A U10C A40U G41A | 0.108
C6A U7A C9A U10A U17G C18G | 0.391
G5C C6U U7A U10C | 0.444
G5C C6G U7A G8U U10C | 2.93
G5A C6G U7G C9A G11U G12A | 0.00148
C6A U7C C9A U10C G42A G43A | 4.69
U17G | 0.247
G5A C6U U7A G8U C9A A40C G41A | 0.00954
G5C C6G U7C U10C G43C | 2.7
G5C C6G U7C U10C G43A | 5.08
G5A C6U U7A G8U C9A A47C G48C | 0.0967
A40C G41U | 0.0496
G5U C6A U7C G8U C9U | 0.164
C36A A37G | 0.0199
G5C C6U G8C C9U U10C G11U G12U | 0.188

Variant | exon inclusion enrichment index
G5C C6U G8C C9U U10C G11U G12C | 0.558
C6A U7C C9A U10C G46C A47U | 2.64
G5A U7C G8A U10C A39U A40C | 2.41
U3G U4G G5U G8U C9U | 0.0141
G5A C6U U7A G8U C9A A14G G15U | 0.00355
G5A C6U U7C G8A U10A | 0.0761
C6A U7C C9A U10C A35G C36A | 2.29
G5A C6G U7G C9A A31C | 0.00349
G5A U7C G8A U10C A14C G15U | 1
G2C C6A U7A C9A U10A | 0.788
G5A U7C G8A U10C A47G G48U | 0.325
G34A | 0.0592
G5C C6U G8C C9U U10C G41U G42C | 2.93
G5C C6U G8C C9U U10C G41U G42A | 0.727
G5A U7C G8A U10C A39G A40C | 2.53
G5A C6G U7G C9A U10C G11A | 0.0011
U4G C6G U7C U10C | 0.838
C6A U7A C9A U10A G13A A14U | 1.82
G5A C6U U7A G8U C9A U32A | 0.0571
G5A C6U U7A G8U C9A G11C G12C | 0.0512
G5A C6U U7A G8U C9A G11C G12U | 0.0197
G26A U27A | 0.101
G5A U7C G8A U10C C16G U17A | 2.77
